Test results taken from doi:10.1101/2022.08.03.502629.

Target: antithrombin (UniProt P01008)
Assay: SPR

Sequence of UniProt P01008 (P01008 33-464): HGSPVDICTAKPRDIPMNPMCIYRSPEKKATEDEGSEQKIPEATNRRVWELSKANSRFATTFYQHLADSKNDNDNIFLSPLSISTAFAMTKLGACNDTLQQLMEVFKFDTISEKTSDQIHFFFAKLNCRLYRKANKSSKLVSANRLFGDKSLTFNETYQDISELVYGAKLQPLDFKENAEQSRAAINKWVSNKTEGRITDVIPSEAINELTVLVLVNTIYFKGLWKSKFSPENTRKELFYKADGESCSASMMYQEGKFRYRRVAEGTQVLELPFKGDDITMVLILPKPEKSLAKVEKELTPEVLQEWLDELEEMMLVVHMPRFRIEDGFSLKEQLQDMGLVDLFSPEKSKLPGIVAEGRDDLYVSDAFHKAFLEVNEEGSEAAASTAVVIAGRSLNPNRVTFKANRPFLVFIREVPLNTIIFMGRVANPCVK

Row | Kd | Substance
1 | 460 nM | K96Y S195A Gla-domainless factor Xa (domain or fragment)
2 | 416 nM | S195A Gla-domainless factor Xa (domain or fragment)
